# Test results reported in paper PMC10687032, “Phosphorylation of USP27X by GSK3β maintains the stability and oncogenic functions of CBX2” (Cell Death & Disease, 2023).
# T1: His-Myc-CBX2 (human, UniProt Q14781 1-532)
# T1 construct: Chromobox protein homolog 2 (CBX2), human; the His-Myc construct is named only in the pull-down methods; the cloning of a His-Myc construct is not described; also called Purified Myc-CBX2
# T1 sequence (looked up): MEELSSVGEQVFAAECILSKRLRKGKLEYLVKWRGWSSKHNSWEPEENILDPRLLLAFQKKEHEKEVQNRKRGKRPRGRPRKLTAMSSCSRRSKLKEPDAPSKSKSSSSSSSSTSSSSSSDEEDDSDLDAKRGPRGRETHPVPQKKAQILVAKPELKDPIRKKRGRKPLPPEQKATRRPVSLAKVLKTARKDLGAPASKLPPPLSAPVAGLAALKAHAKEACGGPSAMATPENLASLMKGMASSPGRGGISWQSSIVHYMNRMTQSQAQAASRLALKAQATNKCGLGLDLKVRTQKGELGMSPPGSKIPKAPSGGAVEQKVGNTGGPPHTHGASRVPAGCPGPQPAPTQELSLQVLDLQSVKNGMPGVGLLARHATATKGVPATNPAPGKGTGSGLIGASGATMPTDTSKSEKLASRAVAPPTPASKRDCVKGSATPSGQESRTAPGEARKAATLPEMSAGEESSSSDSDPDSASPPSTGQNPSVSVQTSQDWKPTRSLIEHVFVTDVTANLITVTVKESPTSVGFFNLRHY
# Columns and labels:
# CBX2 = CBX2 (UniProt Q14781); assay: co-IP with anti-Myc, anti-HA immunoblot; details: reference: HA-USP27X wild type; sites S135
# His-Myc-CBX2 = molecular target: T1, His-Myc-CBX2; assay: pull-down; GST-USP27X bound to glutathione-Sepharose 4B beads incubated with His-Myc-CBX2 for 2 h at 4 °C; retained proteins immunoblotted; details: both partners purified
binding against the reference (CBX2),binding result (His-Myc-CBX2),Molecule
weaker,–,USP27X (from UniProt A6NNY8) HA-USP27X S135A
–,binds,"GST-USP27X (enzyme, human, UniProt A6NNY8 1-438, looked up, ubiquitin-specific peptidase 27X (USP27X), human cDNA cloned into pGEX-1λT (plasmids section) or pGEX-4T-1 (pull-down section); also called GST-USP27X-WT; Recombinant GST-USP27X; source: E. coli BL21, purified (GST beads)) MCKDYVYDKDIEQIAKEEQGEALKLQASTSTEVSHQQCSVPGLGEKFPTWETTKPELELLGHNPRRRRITSSFTIGLRGLINLGNTCFMNCIVQALTHTPILRDFFLSDRHRCEMPSPELCLVCEMSSLFRELYSGNPSPHVPYKLLHLVWIHARHLAGYRQQDAHEFLIAALDVLHRHCKGDDVGKAANNPNHCNCIIDQIFTGGLQSDVTCQACHGVSTTIDPCWDISLDLPGSCTSFWPMSPGRESSVNGESHIPGITTLTDCLRRFTRPEHLGSSAKIKCGSCQSYQESTKQLTMNKLPVVACFHFKRFEHSAKQRRKITTYISFPLELDMTPFMASSKESRMNGQLQLPTNSGNNENKYSLFAVVNHQGTLESGHYTSFIRHHKDQWFKCDDAVITKASIKDVLDSEGYLLFYHKQVLEHESEKVKEMNTQAY"
